Results published in PMC3792046 (PLoS ONE, 2013).

How the values were obtained:
[1] = target: SB105-A10-PEG-biotin; assay: SPR; BIAcore X100; biotinylated SB105-A10 immobilised on SA streptavidin sensorchip (560 RU, 0,12 pmol/mm^2); gp41 (0.61-10 nM) or gp120 (12.5-100 nM) injected in HBS-EP (10 mM HEPES pH 7.4, 150 mM NaCl, 3 mM EDTA, 0.005% surfactant P20), 3 min association, 10 min wash; streptavidin-alone surface for blank subtraction; steady-state affinity from RU at equilibrium
[2] = system: gp120; details: ref [71], [72]; cited from earlier work

Question: Which Kd [1] does the source give for “HIV-1 glycosilated recombinant gp41 ectodomain (amino acids 546-682) (from UniProt P04578 546-682) (domain or fragment)” here?
Answer: Its Kd is 3.9 nM.

Question: With cellulose sulfate as the substance, how does the “recognition of positively charged regions on gp120” value [2] read?
Answer: The value was “recognize positively charged regions on gp120”.
